According to doi:10.1101/699223 (bioRxiv, 2019):

B1: human BBS9 (Bardet-Biedl syndrome protein 9), wild type, Flag-tagged (natural protein, UniProt Q3SYG4 1-887, looked up)
chain: MSLFKARDWWSTILGDKEEFDQGCLCLANVDNSGNGQDKIIVGSFMGYLRIFSPHPAKTGDGAQAEDLLLEVDLRDPVLQVEVGKFVSGTEMLHLAVLHSRKLCVYSVSGTLGNVEHGNQCQMKLMYEHNLQRTACNMTYGSFGGVKGRDLICIQSMDGMLMVFEQESYAFGRFLPGFLLPGPLAYSSRTDSFLTVSSCQQVESYKYQVLAFATDADKRQETEQQKLGSGKRLVVDWTLNIGEQALDICIVSFNQSASSVFVLGERNFFCLKDNGQIRFMKKLDWSPSCFLPYCSVSEGTINTLIGNHNNMLHIYQDVTLKWATQLPHIPVAVRVGCLHDLKGVIVTLSDDGHLQCSYLGTDPSLFQAPNVQSRELNYDELDVEMKELQKIIKDVNKSQGVWPMTEREDDLNVSVVVSPNFDSVSQATDVEVGTDLVPSVTVKVTLQNRVILQKAKLSVYVQPPLELTCDQFTFEFMTPDLTRTVSFSVYLKRSYTPSELEGNAVVSYSRPTDRNPDGIPRVIQCKFRLPLKLICLPGQPSKTASHKITIDTNKSPVSLLSLFPGFASQSDDDQVNVMGFHFLGGARITVLASKTSQRYRIQSEQFEDLWLITNELILRLQEYFEKQGVKDFACSFSGSIPLQEYFELIDHHFELRINGEKLEELLSERAVQFRAIQRRLLARFKDKTPAPLQHLDTLLDGTYKQVIALADAVEENQGNLFQSFTRLKSATHLVILLIALWQKLSADQVAILEAAFLPLQEDTQELGWEETVDAAISHLLKTCLSKSSKEQALNLNSQLNIPKDTSQLKKHITLLCDRLSKGGRLCLSTDAAAPQTMVMPGGCTTIPESDLEERSVEQDSTELFTNHRHLTAETPRPEVSPLQGVSE
B2: human BBS2 (Bardet-Biedl syndrome protein 2), wild type, HPC4- and c-Myc-tagged (natural protein, UniProt Q9BXC9 1-721, looked up)
chain: MLLPVFTLKLRHKISPRMVAIGRYDGTHPCLAAATQTGKVFIHNPHTRNQHVSASRVFQSPLESDVSLLSINQAVSCLTAGVLNPELGYDALLVGTQTNLLAYDVYNNSDLFYREVADGANAIVLGTLGDISSPLAIIGGNCALQGFNHEGSDLFWTVTGDNVNSLALCDFDGDGKKELLVGSEDFDIRVFKEDEIVAEMTETEIVTSLCPMYGSRFGYALSNGTVGVYDKTSRYWRIKSKNHAMSIHAFDLNSDGVNELITGWSNGKVDARSDRTGEVIFKDNFSSAIAGVVEGDYRMDGHIQLICCSVDGEIRGYLPGTAEMRGNLMDTSAEQDLIRELSQKKQNLLLELRNYEENAKAELASPLNEADGHRGIIPANTRLHTTLSVSLGNETQTAHTELRISTSNDTIIRAVLIFAEGIFTGESHVVHPSIHNLSSSICIPIVPPKDVPVDLHLKAFVGYRSSTQFHVFESTRQLPRFSMYALTSLDPASEPISYVNFTIAERAQRVVVWLGQNFLLPEDTHIQNAPFQVCFTSLRNGGHLHIKIKLSGEITINTDDIDLAGDIIQSMASFFAIEDLQVEADFPVYFEELRKVLVKVDEYHSVHQKLSADMADHSNLIRSLLVGAEDARLMRDMKTMKSRYMELYDLNRDLLNGYKIRCNNHTELLGNLKAVNQAIQRAGRLRVGKPKNQVITACRDAIRSNNINTLFKIMRVGTASS

What was measured:
[1] = molecular target: T1, human BBS2 R632P, c-Myc-tagged (human, UniProt Q9BXC9 1-721, R632P); assay: co-IP
T1 sequence (looked up): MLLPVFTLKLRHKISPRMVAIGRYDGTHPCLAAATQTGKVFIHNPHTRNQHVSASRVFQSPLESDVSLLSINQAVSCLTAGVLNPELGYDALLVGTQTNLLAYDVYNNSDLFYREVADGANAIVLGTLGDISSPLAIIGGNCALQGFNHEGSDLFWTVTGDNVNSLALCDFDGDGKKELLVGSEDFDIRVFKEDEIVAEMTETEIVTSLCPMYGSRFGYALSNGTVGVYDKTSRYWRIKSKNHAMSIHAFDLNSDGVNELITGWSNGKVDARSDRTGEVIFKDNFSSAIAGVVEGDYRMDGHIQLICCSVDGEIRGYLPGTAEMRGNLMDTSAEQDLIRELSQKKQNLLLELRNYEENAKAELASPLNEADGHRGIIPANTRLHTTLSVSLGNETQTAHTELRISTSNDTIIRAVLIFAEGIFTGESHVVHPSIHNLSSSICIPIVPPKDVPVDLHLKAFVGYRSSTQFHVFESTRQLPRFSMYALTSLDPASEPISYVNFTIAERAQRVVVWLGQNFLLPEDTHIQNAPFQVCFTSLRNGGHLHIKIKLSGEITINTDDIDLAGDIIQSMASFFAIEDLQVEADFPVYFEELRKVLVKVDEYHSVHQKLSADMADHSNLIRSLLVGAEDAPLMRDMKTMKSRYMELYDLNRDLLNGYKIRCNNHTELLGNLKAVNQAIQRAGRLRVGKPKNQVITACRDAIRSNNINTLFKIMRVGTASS

[2] = molecular target: B1; assay: negative-stain EM reconstruction + cross-linking
[3] = molecular target: B2; assay: co-IP

Which “reduction in binding relative to WT” value [1] does the source give for B1 here?
Its value is 70%.

Does B2 bind [2]?
Result: binds

B3: human BBS9 G141R, Flag-tagged (natural protein, UniProt Q3SYG4 1-887, looked up)
chain: MSLFKARDWWSTILGDKEEFDQGCLCLANVDNSGNGQDKIIVGSFMGYLRIFSPHPAKTGDGAQAEDLLLEVDLRDPVLQVEVGKFVSGTEMLHLAVLHSRKLCVYSVSGTLGNVEHGNQCQMKLMYEHNLQRTACNMTYRSFGGVKGRDLICIQSMDGMLMVFEQESYAFGRFLPGFLLPGPLAYSSRTDSFLTVSSCQQVESYKYQVLAFATDADKRQETEQQKLGSGKRLVVDWTLNIGEQALDICIVSFNQSASSVFVLGERNFFCLKDNGQIRFMKKLDWSPSCFLPYCSVSEGTINTLIGNHNNMLHIYQDVTLKWATQLPHIPVAVRVGCLHDLKGVIVTLSDDGHLQCSYLGTDPSLFQAPNVQSRELNYDELDVEMKELQKIIKDVNKSQGVWPMTEREDDLNVSVVVSPNFDSVSQATDVEVGTDLVPSVTVKVTLQNRVILQKAKLSVYVQPPLELTCDQFTFEFMTPDLTRTVSFSVYLKRSYTPSELEGNAVVSYSRPTDRNPDGIPRVIQCKFRLPLKLICLPGQPSKTASHKITIDTNKSPVSLLSLFPGFASQSDDDQVNVMGFHFLGGARITVLASKTSQRYRIQSEQFEDLWLITNELILRLQEYFEKQGVKDFACSFSGSIPLQEYFELIDHHFELRINGEKLEELLSERAVQFRAIQRRLLARFKDKTPAPLQHLDTLLDGTYKQVIALADAVEENQGNLFQSFTRLKSATHLVILLIALWQKLSADQVAILEAAFLPLQEDTQELGWEETVDAAISHLLKTCLSKSSKEQALNLNSQLNIPKDTSQLKKHITLLCDRLSKGGRLCLSTDAAAPQTMVMPGGCTTIPESDLEERSVEQDSTELFTNHRHLTAETPRPEVSPLQGVSE
Which “reduction in binding relative to WT” value [3] does the source give for B3 here?
The value was 70%.
